Reference: patent US20170052176A1

Experiments:
[1] = molecular target: CD8 on human CD8+ cells (PBMC) (human); experiment: capture of unlabelled PBMC on a pipette tip of Strep-Tactin-agarose loaded with 1.5 ug anti-CD8 Fab-TST, elution with D-biotin; flow cytometry with CD8-PE and CD3-APC; 7,6% before selection [continued]
[2] = molecular target: CD8 on human CD8+ cells (PBMC) (human); experiment: capture of PBMC pre-incubated with 1.5 ug anti-CD8 Fab-TST / multimerized soluble Strep-Tactin on Biotin-agarose; flow cytometry with CD8-PE and CD3-APC
[3] = molecular target: CD8 on human CD8+ cells (PBMC) (human); experiment: capture of PBMC pre-incubated with 1.5 ug anti-CD8 Fab-TST / multimerized soluble Strep-Tactin on Biotin-agarose, elution with D-biotin; flow cytometry with CD8-PE and CD3-APC [continued]
[4] = molecular target: CD8 on human CD8+ cells (PBMC) (human); experiment: capture of unlabelled PBMC on a pipette tip of Strep-Tactin-agarose loaded with 1.5 ug anti-CD8 Fab-TST; flow cytometry with CD8-PE and CD3-APC; 7,6% before selection [continued]

Chain of CD8 on human CD8+ cells (PBMC) (human) (P01732 22-235): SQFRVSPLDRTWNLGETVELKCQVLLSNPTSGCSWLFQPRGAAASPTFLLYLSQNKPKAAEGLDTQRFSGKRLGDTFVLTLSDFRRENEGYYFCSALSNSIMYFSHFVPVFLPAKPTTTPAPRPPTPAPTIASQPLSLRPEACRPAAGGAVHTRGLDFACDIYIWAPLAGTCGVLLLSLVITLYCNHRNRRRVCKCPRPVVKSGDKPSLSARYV

anti-CD8 Fab-fragment carrying the Twin-Strep-Tag at the C-terminus of the heavy chain (catalogue number 6-8003, IBA GmbH)
Q1-UL, % CD8 PE-positive cells in the positive (biotin-eluted) fraction [1]: 58.7%
Q1-UL, % CD8 PE-positive cells in the wash through fraction [2]: 0.9%
Q1-UL, % CD8 PE-positive cells in the positive (biotin-eluted) fraction [3]: 72.4%
Q1-UL, % CD8 PE-positive cells in the wash through fraction [4]: 2.4%
